# Measurements published in PMC2959088.
# pKi: −log10 of the molar value.
# Target: human cathepsin L (human)
# Experiment: enzyme inhibition assay (residual activity on the fluorogenic substrate Z-Phe-Arg-MCA); cathepsin B or L (0.3 nM) incubated 5 min at 37°C with varied inhibitor in 100 mM sodium acetate pH 5.5, 2.5 mM DTT; substrate 0.01 mM; triplicate; Ki(app) by non linear regression (GraFit), Ki by Morrison's procedure
# Oryzacystatin-1, sequence (P09229 39-140): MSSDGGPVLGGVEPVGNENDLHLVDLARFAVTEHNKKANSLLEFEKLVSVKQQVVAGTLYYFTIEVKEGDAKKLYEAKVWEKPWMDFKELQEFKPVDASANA
row,Substance,pKi
1,Reverse Mutant 1 (T30I) (designed binder),8.71
2,"Reverse Mutant 3 (T30I, Q97L) (designed binder)",7.90
3,Canecystatin-1 (natural protein),10.00
4,Reverse Mutant 2 (Q97L) (designed binder),7.93

# Target: human cathepsin B (human)
# Experiment: as above
row,Substance,pKi
1,Oryzacystatin-1 (from UniProt P09229 39-140) (natural protein),7.11
2,Canecystatin-1 (natural protein),7.06
